Reference: patent US20030194400

Legend:
[1] = target: fibronectin-Tissue Factor (Fn-TF) fusion protein
[2] = target: T1, soluble Tissue Factor extracellular domain TF1-218
T1 chain: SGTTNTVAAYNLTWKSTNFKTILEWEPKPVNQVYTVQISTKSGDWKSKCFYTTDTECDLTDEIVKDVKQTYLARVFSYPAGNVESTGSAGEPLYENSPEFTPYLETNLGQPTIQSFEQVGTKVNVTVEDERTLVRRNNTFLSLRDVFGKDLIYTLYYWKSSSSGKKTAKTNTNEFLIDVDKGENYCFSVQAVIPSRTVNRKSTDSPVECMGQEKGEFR

B1: Factor VIIa (protein)
chain: ANAFLEELRPGSLERECKEEQCSFEEAREIFKDAERTKLFWISYSDGDQCASSPCQNGGSCKDQLQSYICFCLPAFEGRNCETHKDDQLICVNENGGCEQYCSDHTGTKRSCRCHEGYSLLADGVSCTPTVEYPCGKIPILEKRNASKPQGRIVGGKVCPKGECPWQVLLLVNGAQLCGGTLINTIWVVSAAHCFDKIKNWRNLIAVLGEHDLSEHDGDEQSRRVAQVIIPSTYVPGTTNHDIALLRLHQPVVLTDHVVPLCLPERTFSERTLAFVRFSLVSGWGQLLDRGATALELMVLNVPRLMTQDCLQQSRKVGDSPNITEYMFCAGYSDGSKDSCKGDSGGPHATHYRGTWYLTGIVSWGQGCATVGHFGVYTRVSQYIEWLQKLMRSEPRPGVLLRAPFP
Factor VIIa amidolytic activity (chromozym t-PA hydrolysis) [1]: Very little difference in amidolytic activity is discernable for Tissue Factor and Fn-TF except at high concentrations
Factor VIIa amidolytic activity (chromozym t-PA hydrolysis) [2]: Very little difference in amidolytic activity is discernable for Tissue Factor and Fn-TF except at high concentrations
